No end group written: not given here.
How the values were obtained:
HER2抗原合成多肽 (SEQ ID No.1) = target: T1, HER2抗原合成多肽 (SEQ ID No.1) (not fully specified; also: coupled to KLH or OVA for immunisation); assay: ELISA screening of hybridoma clones on the HER2 antigen (SEQ ID NO.1)
T1 construct: It was coupled to KLH or OVA for immunisation; also called HER2的多肽
T1 peptide: PTAENPEYLGLDVPV

HER2蛋白 (表达HER2蛋白的细胞) [1] = target: HER2蛋白 (表达HER2蛋白的细胞) (UniProt P04626); assay: flow cytometry on cells expressing HER2, against the blank control without antibody
HER2蛋白 (表达HER2蛋白的细胞) [2] = target: HER2蛋白 (表达HER2蛋白的细胞) (UniProt P04626); assay: flow cytometry on 1×10^6 cells expressing HER2, 0.5 μg antibody, Alexa Fluor 488 goat anti-rabbit secondary

binding result (HER2抗原合成多肽 (SEQ ID No.1)): binds | fold MFI against the blank control (HER2蛋白 (表达HER2蛋白的细胞) [1]): 251 倍 | MFI (HER2蛋白 (表达HER2蛋白的细胞) [2]): 2480
B1: 246G0D3抗HER2重组兔单克隆抗体 (antibody, V domains shown)
VH: QSVEESGGRLVTPGTPLTLTCTVSGFSLSSYAMSWVRQAPGKGLEYIGIIRSSGSTYYASWAKGRFTISKTSTTVDLKLTSPTSEDTATYFCCRGSPGSGSGYSVLWGQGTLVTVSS
VL: AAVLTQTPSPVSAAVGGTVSISCQSSKSVYNNNCLAWYQQKPGQPPKLLIYGASTLASGVPSRFKGSGSGTQFTLTISDVQCDDAATYYCAGGYTDDSDDGFGGGTEVVVK
notes: also called 246G0D3抗体; 246G0D3抗HER2单克隆抗体

From CN114736300A (SUZHOU ABCARTA MEDICAL TECH CO LTD, dated 2022)
